These results are taken from US20130288305A1 (AVEO PHARMACEUTICALS, published 2013).

Assay [1] deals with T1, recombinant human FGFR2 beta (IIIb)/Fc Chimera (human, UniProt P21802-3 152-378).
T1 construct: Bought from R&D Systems; the IIIb isoform applies; also called rhFGFR2β-IIIb-Fc; human FGFR2-IIIb; Fc part of the bought chimera not given
In words: SPR (Biacore T100), antibody captured on anti-mouse IgG, FGFR protein as analyte, 25 C. The procedure: (§1) Rabbit anti-mouse IgGs (GE Healthcare) were immobilized on carboxymethylated dextran CM4 sensor chips (GE Healthcare) by amine coupling, using a standard coupling protocol, according to the vendor's instructions (GE Healthcare). The analyses were performed at 25° C. and 37° C., using PBS containing 0.05% surfactant P20 (GE Healthcare) as running buffer.
(§2) The antibodies were captured in individual flow cells at a flow rate of 10 μl/min. Injection time was varied for each antibody to yield an Rmax between 30 and 60 RU. […] The dissociation phase was monitored for up to 900 seconds. The surface was then regenerated with two 60-second injections of 10 mM Glycine-HCl (pH 1.7), at a flow rate of 60 μl/minute. The FGFR protein concentration range tested was 50 to 3.125 nM (two-fold dilutions).
(§3) Kinetic parameters were determined using the kinetic function of the BlAevalutation software (GE Healthcare) with double reference subtraction. Kinetic parameters for each antibody, kₐ (association rate constant), kd (dissociation rate constant) and KD (equilibrium dissociation constant) were determined.

The target of assay [2] is T2, recombinant human FGFR1 beta (IIIb)/Fc Chimera (human, UniProt P11362-19 120-376).
T2 construct: Treated as one reagent; also called rhFGFR1β-IIIc-Fc; rhFGFR1β-IIIb-Fc; Fc part of the bought chimera not given
T2 sequence (looked up): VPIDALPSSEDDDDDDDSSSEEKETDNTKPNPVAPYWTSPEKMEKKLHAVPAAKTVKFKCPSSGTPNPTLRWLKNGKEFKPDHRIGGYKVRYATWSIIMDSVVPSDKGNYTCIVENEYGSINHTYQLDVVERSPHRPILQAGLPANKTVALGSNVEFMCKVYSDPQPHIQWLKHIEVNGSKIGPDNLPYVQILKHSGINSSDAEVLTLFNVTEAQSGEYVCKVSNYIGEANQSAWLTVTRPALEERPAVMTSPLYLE
The assay is described as above. The procedure: as §1, §2, §3

The target in assay [3] is T3, recombinant human FGFR2 beta (IIIb)/Fc in which the Fc region was removed enzymatically (human, UniProt P21802-3 152-378, limits assumed).
T3 construct: also called rhFGFR2β-IIIb-cleaved; monomeric recombinant human FGFR2 beta IIIb
Described as above. The protocol:
as §1, §2, §3

The target in assay [4] is T1, recombinant human FGFR2 beta (IIIb)/Fc …. As to the kind of experiment: SPR (Biacore T100), antibody captured on anti-mouse IgG, FGFR protein as analyte, 37 C. The procedure:
as §1, §2, §3
(In general: Surface plasmon resonance follows binding to a sensor surface in real time, without labels.)

Assay [5] concerns the target T3, recombinant human FGFR2 beta (IIIb)/Fc …. The description is as above. The procedure:
as §1, §2, §3

For assay [6] the target is unchanged. As to the kind of experiment: SPR (Biacore T100), antibody captured on anti-human IgG Fc, rhFGFR2β-IIIb-cleaved as analyte, 25 C. The protocol: (§4) Goat anti-human IgG Fc (Jackson ImmunoResearch, Catalog No. 109-005-098) was immobilized on carboxymethylated dextran CM4 sensor chips (Biacore) by amine coupling (Biacore) using a standard coupling protocol according to the vendor's instructions. The analyses were performed at 25° C. and 37° C. using PBS (Invitrogen) containing 0.05% surfactant P20 (Biacore) as running buffer.
(§5) Purified antibodies were captured in individual flow cells at a flow rate of 10 μl/minute. Injection time was varied for each antibody to yield an Rₘₐₓ between 30 and 90 RU. […] The dissociation phase was monitored for up to 900 seconds. The surface was then regenerated with two 60 second injections of glycine pH 2.25 (made from glycine pH 2.0 (Biacore) and pH 2.5 (Biacore)) at 30 μl/minute. Experiments were conducted using concentrations of rhFGFR2β-IIIb-cleaved between 20 and 1.25 nM (a two-fold serial dilution).
Kinetic parameters were determined using the kinetic function of the BlAevaluation software (Biacore) with double reference subtraction. Kinetic parameters for each antibody, kₐ (association rate constant), kd (dissociation rate constant) and KD (equilibrium dissociation constant) were determined.

Assay [7] has the same target. As to the kind of experiment: SPR (Biacore T100), antibody captured on anti-human IgG Fc, rhFGFR2β-IIIb-cleaved as analyte, 37 C. The protocol: as §4, §5

T3 sequence (P21802 other isoform, or with tags, fused parts or gaps limits assumed): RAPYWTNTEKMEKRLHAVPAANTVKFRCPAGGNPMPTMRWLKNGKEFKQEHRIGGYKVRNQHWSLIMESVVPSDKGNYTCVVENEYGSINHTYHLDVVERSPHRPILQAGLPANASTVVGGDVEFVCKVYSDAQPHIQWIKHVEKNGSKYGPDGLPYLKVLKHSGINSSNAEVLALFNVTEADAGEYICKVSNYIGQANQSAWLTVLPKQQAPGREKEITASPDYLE
T1 sequence (P21802 other isoform, or with tags, fused parts or gaps mutant): as the sequence (P21802 other isoform, or with tags, fused parts or gaps limits assumed) above

B1: antibody 4B9 (antibody)
heavy: EVQLQQSGTVLARPGASVKMSCKTSGYTFTSYWMHWVKQRPGQGLEWIGAIYPGNSDTDYSQKFKGKATLTAVTSATTAYMELSSLTNEDSAVYYCSKFDYWGQGTTLTVSSAKTTPPSVYPLAPGSAAQTNSMVTLGCLVKGYFPEPVTVTWNSGSLSSGVHTFPAVLQSDLYTLSSSVTVPSSTWPSQTVTCNVAHPASSTKVDKKIVPRDCGCKPCICTVPEVSSVFIFPPKPKDVLTITLTPKVTCVVVDISKDDPEVQFSWFVDDVEVHTAQTQPREEQFNSTFRSVSELPIMHQDWLNGKEFKCRVNSAAFPAPIEKTISKTKGRPKAPQVYTIPPPKEQMAKDKVSLTCMITDFFPEDITVEWQWNGQPAENYKNTQPIMDTDGSYFVYSKLNVQKSNWEAGNTFTCSVLHEGLHNHHTEKSLSHSPGK
light: QIVLTQSPALMSASPGEKVTMTCSASSSVNYMYWYQQKPRSSPKPWIYLTSNLASGVPARFSGRGSGTSYSLTISSMEAEDAATYYCQQWSSNPYTFGGGTKLEIKRADAAPTVSIFPPSSEQLTSGGASVVCFLNNFYPRDINVKWKIDGSERQNGVLNSWTDQDSKDSTYSMSSTLTLTKDEYERHNSYTCEATHKTSTSPIVKSFNRNEC
notes: Murine IgG1 kappa from hybridoma clone 4B9; also called GP369; monoclonal antibody 4B9
What is called Kd is a measure of binding affinity in units of concentration. Usually koff stands for the first-order rate constant of dissociation. As usually defined, the kon is the rate constant with which the complex forms. As to B1, the Kd in assay [1] was determined as 0.61 nM; in assay [3], 4.2 nM; in assay [4], 2.96 nM; in assay [5], 1.2 nM. The values for the off-rate constant (koff) in assay [1] and in assay [5] were 4.6e-05 s⁻¹ and 0.000223 s⁻¹, respectively. The kon in assay [1] is 94000 M⁻¹ s⁻¹; in assay [5] it was 254000 M⁻¹ s⁻¹. Besides, in assay [2], the binding result was “no binding (tested: 50 to 3.125 nM tested)”.

B2: Hu4B9-82 (antibody)
heavy: not shown
light: EIVLTQSPATLSLSPGERATLSCRASSSVNYMYWYQQKPGQAPRPWIYLTSNRATGIPARFSGSGSGTDYTLTISSLEPEDFAVYYCQQWSSNPYTFGQGTKLEIKRTVAAPSVFIFPPSDEQLKSGTASVVCLLNNFYPREAKVQWKVDNALQSGNSQESVTEQDSKDSTYSLSSTLTLSKADYEKHKVYACEVTHQGLSSPVTKSFNRGEC
notes: Humanized IgG1 kappa
With B2, in assay [6], the Kd came to 0.49 nM, the koff stood at 9.4e-05 s⁻¹ and the kon came to 190000 M⁻¹ s⁻¹. In addition, in assay [7], the Kd is 0.93 nM, the dissociation rate constant (koff) worked out at 0.00036 s⁻¹ and the kon is 400000 M⁻¹ s⁻¹.

B3: Hu4B9-65 (antibody)
heavy: not shown
light: EIVLTQSPATLSLSPGERATLSCRASSSVNYMYWYQQKPGQAPRPWIYLTSNRATGVPARFSGSGSGTDYTLTISSLEPEDFAVYYCQQWSSNPYTFGQGTKLEIKRTVAAPSVFIFPPSDEQLKSGTASVVCLLNNFYPREAKVQWKVDNALQSGNSQESVTEQDSKDSTYSLSSTLTLSKADYEKHKVYACEVTHQGLSSPVTKSFNRGEC
notes: Humanized IgG1 kappa
Consider B3, for which, in assay [6], the Kd came to 0.26 nM, the koff turned out to be 6.5e-05 s⁻¹ and the kon is 240000 M⁻¹ s⁻¹. Moreover, in assay [7], the Kd worked out at 0.89 nM, the koff was determined as 0.00028 s⁻¹ and the kon turned out to be 370000 M⁻¹ s⁻¹.

B4: Hu4B9-83 (antibody)
heavy: not shown
light: EIVLTQSPATLSLSPGERATLSCRASSSVNYMYWYQQKPGQAPRPWIYLTSNRATGIPARFSGSGSGTDFTLTISSLEPEDFAVYYCQQWSSNPYTFGQGTKLEIKRTVAAPSVFIFPPSDEQLKSGTASVVCLLNNFYPREAKVQWKVDNALQSGNSQESVTEQDSKDSTYSLSSTLTLSKADYEKHKVYACEVTHQGLSSPVTKSFNRGEC
notes: Humanized IgG1 kappa
Take B4: in assay [6], the Kd came to 0.35 nM, the koff was 8.9e-05 s⁻¹ and the kon stood at 260000 M⁻¹ s⁻¹. In addition, in assay [7], the dissociation constant (Kd) is 0.92 nM, the off-rate (koff) was 0.00029 s⁻¹ and the kon is 320000 M⁻¹ s⁻¹.
